Experimental data: the DeepSol protein solubility set

assay: soluble on expression in E. coli; label from the status in PepcDB or PDB records

Sequence	soluble on expression in E. coli
MGFFSGQFSNVVEWEEFREDMIFWKWHNREIKRGSKLIIRPGQDAIFLFNGRIEGIFKDEGDYDIESQIIPFLSTLQGFKFGFNSGMRAEVLFVNTKEFTAKWGTKSAINIPTPQLPGGIPIRANGTFTFKVNDYVKLIDRIAGVKDSFLVEDVRLRIMALLDQLMMKWIVQEGRDMFNLQSNSFAIADGLKTDLDMQIYDMGITVSQLTIMSFTYPEEIQQMIAKAASHTMIGDMGRYQQVSVLDGIAGGKGQGGSAAADMAGMAIGMQMANEMIKGVTSPQREQTQGRGSHAPQGGSEPGLIKPNFCPNCGQKTDGANFCSNCGQKLVLEHHHHHH	soluble
MAHHHHHHMPAKSAKSKTQTLRDERKLGVEKLVELVFIGRPRTLSFSHRSLGSLRHPYSSLICETSAACASTQDKIMYLLEVFLEAKAEKKAWMRVERIFDSMLGDALMEKMKLGLLLSSELLQRFEVLWIRLGGVNGGFIFEDAYKQFHQHLYFTLFGIEQMTLLPATMQFILEDYQYDSHDKSGIDFGSFAHSMLELADNWAGSREVTDYVAFMDKIIECYPASAVKPCKTHAPDELTLSKDAFFRGGVVVPRVEGEQIVYHRITL	not soluble
GMSVVDPSLIERIIRDDVRAMGAYHVPDSHGLVKLDAMENPYRLPPALRSELAARLGEVALNRYPVPSSEALRAKLKEVMQVPAGMEVLLGNGSDEIISMLALAAARPGAKVMAPVPGFVMYAMSAQFAGLEFVGVPLRADFTLDRGAMLAAMAEHQPAIVYLAYPNNPTGNLFDAADMEAIVRAAQGSVCRSLVVVDEAYQPFAQESWMSRLTDFGNLLVMRTVSKLGLAGIRLGYVAGDPQWLEQLDKVRPPYNVNVLTEATALFALEHVAVLDEQAAQLRAERSRVAEGMAAHGGVTVFPSAANFLLARVPDAAQTFDRLLARKVLIKNVSKMHPLLANCLRVTVSTPEENAQFLEAFAASLQD	soluble
MPAIVLIGAQWGDEGKGKATDLLGGRVQWVVRYQGGNNAGHTVVLPTGENFALHLIPSGVLTPGVTNVIGNGVVIDPGVLLNELRGLQDRGVDTAKLLISADAHLLMPYHIAIDKVTERYMGSKKIGTTGRGIGPCYQDKIARIGIRVADVLDPEQLTHKVEAACEFKNQVLVKIYNRKALDPAQVVDALLEQAEGFKHRIADTRLLLNAALEAGETVLLEGSQGTLLDVDHGTYPYVTSSNPTAGGAAVGSGIGPTRIGTVLGILKAYTTRVGSGPFPTELFDEHGEYLSKTGREFGVTTGRRRRCGWFDAVIARYAARVNGITDYFLTKLDVLSSLESVPVCVGYEIDGRRTRDMPMTQRDLCRAKPVYEELPGWWEDISGAREFDDLPAKARDYVLRLEQLAGAPVSCIGVGPGREQTIVRRDVLQDRP	not soluble
MSLSVPRSGLSVQMAQPARPLRADAARNRARILGVAYEAFATEGLSVPIDEIARRAGVGAGTVYRHFPTKEALCAAVIGDRMPHLVDDGYVLLKSAGPGEALFTYLRSLVLHWGATDRGLVDALAGAGGIDILGVAPDAEDAFLTILSDLLYAAQYAGTARTDVGVREVKSILVGCQAMEAYNSALAERVTDVVVDGLRAAREGHHHHHH	soluble
ALAKRIDAALILKDGRVVKGSNFENLRDSGDPVELGKFYSEIGIDELSFWDITASVEKRKTMLELVEKVAEQIDIPITVGGGIYDFETASELILRGADKVEINTAAVENPSLITQIAQTFGSQAVVVYIAAKRVDGEFMVFTYSGTKNTGILLRDWVVEVEKRGAGEIVLGSIDRLGTKSGYDTEMIRFVRPLTTLPIIAHRGAGKTEHFLEAFLAGADAAKADSVFHSREIDVRELKEYLKKHGVNVRLEGLGSLEHHHHHH	soluble
MVSRRVQALLDQLRAQGIQDEQVLNALAAVPREKFVDEAFEQKAWDNIALPIGQGQTISQPYMVARMTELLELTPQSRVLEIGTGSGYQTAILAHLVQHVCSVERIKGLQWQARRRLKNLDLHNVSTRHGDGWQGWQARAPFDAIIVTAAPPEIPTALMTQLDEGGILVLPVGEEHQYLKRVRRRGGEFIIDTVEAVRFVPLVKGELA	soluble
MGSDKIHHHHHHKVEGNGNIITKEISVDNYSEIELGGNIEYSGNNFWGNRSNKKFPVFKYTHGRSASLKITIDENLFPLLSIKSNNGRLAIRIQDGTRIKPTQYVIEGSSKTLKYLKTSGPMDFEAQNAFSEDQLEIKISGSSDVKFPHNVKLRLGEFSVSGSGDLVFEDLDCKNLTSKVSGSGDITLKGKADEARYSVSGSGDIKAYDLSVNDLSCSVSGSGDARVYAKDNMNLSVSGSGDIRYKGPANVNKSKSGSGSIQGAN	not soluble
GSTAMATTMEQEICAHSMTFEECPKCSALQYRNGFYLLKYDEEWYPEELLTDGEDDVFDPDLDMEVVFETQ	soluble
MAEQSDKDVKYYTLEEIQKHKDSKSTWVILHHKVYDLTKFLEEHPGGEEVLREQAGGDATENFEDVGHSTDARELSKTYIIGELHPDDRSKIAKPSETL	soluble
MPASYAYLGPEGTFTEVALRTLPEAATRELVPMVSVPAALDAVRNGEAEAAFVPIENSVEGGITTTLDELVAGEPLMIYREVLLSITFALLVRPDTKLSEIKTVTAHPAAQPQVRNWMKANLPDVVWESAASNADGARLVQEGRYDAAFAGEFAAAKYGLVPLETGIHDAENAQTRFVLVGRPAR	not soluble
MAHHHHHHMDKIKSWLGFNKKIVFTENKFLLRNVNDQESLQAENVRAEDYPIPEKYLEDPDKIPKYYVFQSNMVTDEDLQPGMLRQLEVDKRLTLPTRTHISFLVTATDVIHSWSIPSLGIKADAIPGRLHKITTFILREGVYYGQCSEMCGTLHGFMPIVVEAVSPEAYAAHAKKYYKE	not soluble
MGSDKIHHHHHHMFSSEVIASFNELEMSIYNYICQHAEKVAYMRIRELADETHVSTATILRFCRKVDCDGFSEFKVKLKMHLEKEKKAPIKSSQHAIAEFFERAFRGDLEERISEAAALVADAENVIFIGIGSSGILAEYGARYFSALGKLSMYIKDFSYPIHSKLRQNSVTIALSVSGETHFTITQVNQLKQEGSKIISITNNKFSTIAKVADVNLSYYVSEEFFEKANITTQVPVVYILEAMARELYKLQG	not soluble
MAALMTPGTGAPPAPGDFSGEGSQGLPDPSPEPKQLPELIRMKRDGGRLSEADIRGFVAAVVNGSAQGAQIGAMLMAIRLRGMDLEETSVLTQALAQSGQQLEWPEAWRQQLVDKHSTGGVGDKVSLVLAPALAACGCKVPMISGRGLGHTGGTLDKLESIPGFNVIQSPEQMQVLLDQAGCCIVGQSEQLVPADGILYAARDVTATVDSLPLITASILSKKLVEGLSALVVDVKFGAGAVFPNQEQARELAKTLVGVGASLGLRVAAALTAMDKPLGRCVGHALEVEEALLCMDGAGPPDLRDLVTTLGGALLWLSGHAGTQAQGAARVAAALDDGSALGRFERMLAAQGVDPGLARALCSGSPAERRQLLPRAREQEELLAPADGTVELVRALPLALVLHELGAGRSRAGEPLRLGVGAELLVDVGQRLRRGTPWLRVHRDGPALSGPQSRALQEALVLSDRAPFAAPLPFAELVLPPQQ	soluble
MVADRFSHVRGWVFDLDNTLYPPSARLFDQIERRMTDWVMTELRVVREEADRLRRHYWSTYGTTLAGLMAEHGVDPAPYLSHVHDISLDHLERDMILAARIRALPGRKIVYTNGCAPYAERVLEARGLANLFDAVYGVEHAGFRPKPDRAAFETVFAADRLAPGTAAMFEDDSRNLLAPHEMGMRTVHVAPEALPAPHIHHHTLDLSEFLALLQP	not soluble
MKLVLVSTRGVRSLNSTNFPAPWPFVKKGAFGQRKIGPMNYEKFKWPGQNREFPELSPKFQKLNPKELHRYTGVQADGFHDEKTGEFVPVKEMRSELVVPNLDGFKLRPYVSYRTDVQIEKRRVAYEKKVLEKGSERLADLHTVEDERWPPPKMSAETLFELAYGDTVRSAYKEGKYGNK	not soluble
MRLIIVSGRSGSGKSTALNVLEDNGFYCIDNLPASLLPDLAQRALLHTELLQPQVAVSIDARNLPSQLQRFPELLQEVRDNHINCDVLYLDADDETLLKRFSETRRRHPLTTDTRSLAEAIGDESQLLGPIADLADLKLDTTSLNLYQLRDTIKLRLLNKPEPGTAFLVESFGFKRGMPVDADLVFDVRCLPNPYWKPELRDHSGLEPEVREYLAAQPDVEEMYQDIVGYLNKWLPRFAASNRSYVTVAIGCTGGHHRSVYLAERIGAALRDSLKNVQIRHRDLSS	not soluble
MLCAKNKKDPKPPPASFSETSKVQNVQNTQPKPAAPSQMSIDESHSKNQKLPSAEKSVEECKKPVSPEKKKSPIKVLSEKKLKSKKKEEDKEPDEKVEKDVKKEVKADNNEPLVKNLKIAKKEQEEENPKTDLESHKDEAEAKKKESRRQKKMRNKNSKEGSVEKMEKSEKAY	not soluble
MGSDKIHHHHHHAENNDDCFRGVPLQVKLPAGILSETMQDINIYVFDGSDRLLDILPIRSLEPVILSYPGIPSLHCIAWGNTQDGTMYVSPLKTGDPLSAGFISLKPSAVTRAQKSIFISPTDLFYGELNVDNTSTSNRIEEKEMSVSRMVASMNITIRGLELLSQSNEGVYSIVVHETASRVDFEGRYGGDPASYAFSPRFEAGKDYIIPPFNLFPTTVGSGISIDIYRNGSLLRSISTDSGNQPILPVVGKTLNVLLNFRLDVDVELALTGWGEEYIWKEYN	not soluble
MSLGDRFYDLISALHKSVRGSAPDAALYWYARILTAGGDPLYVARRLLAIASEDVGNADPRAMQVALAAWDCFSRVGAYEGERAIAQAIIYLSVAPKSNAVYTAFNTAKQQAKDLPDYDVPPHLRNAPTNLMKELGYGTEYRYAHDEPNAYAAGENYFPPELKDTQYYFPTNRGMEIQIKEKLERLREQDKSTEGHHHHHH	soluble
MMRRGLLLLNLGTPNNADIRAVKLYLREFLTDKRVIDLPTIPRYILVYCLILPFRSPKSAQAYQSIWTEKGSPLLYHSQNLVTKLQSALKDEYKIALGMRYGTPSITTALAELKDCHSLTILPLFPQYSSAATGSAIEKTLSHLANQEIIPSIKIIRDFYQRPEYIQAQAKIMKPYIKDNFHLLFSYHGIPERHIHKSGCDTLCPQTCTPIYDKNQACYRAQCYQTSLLLAKELQLGTHQYTTAFQSRLGKTPWIKPYTDEIFAELISKGIKNIVVSCPSFVADCLETLEEIGIRAKEQWEKLGGEQFILTPCMNDHPEWIKAIQSIVNEQF	not soluble
MKYSKEYDEKTVVKINDVKFGEGFTIIAGPCSIESREQIMKVAEFLAEVGIKVLRGGAFKPRTSPYSFQGYGEKALRWMREAADEYGLVTVTEVMDTRHVELVAKYSDILQIGARNSQNFELLKEVGKVENPVLLKRGMGNTIQELLYSAEYIMAQGNENVILCERGIRTFETATRFTLDISAVPVVKELSHLPIIVDPSHPAGRRSLVIPLAKAAYAIGADGIMVEVHPEPEKALSDSQQQLTFDDFLQLLKELEALGWKG	soluble
MSLSPEDLEATGARLVEELVEYRTRTQVSTAVIGMSGGVDSALTAALFKAAGWHVMGHTLPIEQDPTETDRGIEACAALGIEHRPLDLSGAYEAALAQLGELDPDLLSSDETPARTRRGNLRARLRMMTLYDQAHRLGGLVAGTDNFSELTAGFWTLHGDVGDLAPVQSLLKSWEVPWLARAYRVPEATWRAMPTDGLGIGGGDEAQIGATYLEWDILQFALAEALGDDPGLATRHLAFALRMDADRHAQEVLGTLIARMRATWHKRLNEGHHHHHH	not soluble
